Laboratory results: the nanobody polyreactivity screen of Harvey et al. (2022)

Assay: yeast display, Sf9 membrane polyspecificity reagent, FACS + sequencing; frameworks hold sequencing errors
Procedure, shortened: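 Galactose-induced (36–48 hours) yeast carrying a synthetic nanobody display library were exposed to 10% biotinylated, detergent-solubilized Sf9 membrane reagent at 4 °C for 1 hour. FACS followed streptavidin microbead enrichment, using low and high (top ~1%) gates for expression (anti-HA) and reagent binding (streptavidin). Colony PCR, MiSeq 2 × 250 sequencing and CDR-length filtering followed. Labels for polyreactivity reflect the gate of origin.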

Sequence	polyreactivity (PSR sort gate)
QVQLVESGGGLVQAGGSLRLSCAASGRIFVPNNMGWYRQAPGKERDLVAAISSGGSTYADSVKGRFTISRDNAKNTFYLQLNSLKPEDTAVYYCAVGKYGTQFTQWVRKYDYWGQGTQVTVSS	low polyreactivity
QVQLVESGGGLVQAGGSLRLSCAASGSTFYRYTMGWYRQAPGKERELVAAITGSGDSTYYADSVKGRFTISRDNAKNTVYLQMNSLKPEDTAVYYCAAANSFYYIATGEYDYWGQGTQVNVSS	high polyreactivity
QVQLVESGGGLVQAGGSLRLSCAASGRTFRRNAMGWYRQAPGQERELVAGIRKRGGSTYYADSVKGRFTISRDNAKNTVYLQMNSLKPQDTAVYYCAAQPALTYRFYYWGQGTQVTVSS	high polyreactivity
QVQLVESGGGLVQAGGSLRLSCAASGRIFILYAMGWYRQAPGKERELVAAITGGSTYYADSVKGRFTISRDNAKNTVYLQMNSLKPEDSAVYYCAADVRHYIWEYYYWGQGTQVTVSS	low polyreactivity
QVQLVESGGGLVQAGGSLRLSCAASGNIFNTYAMGWYRQAPGKERELVAVISSRCGRTYYADSVKGRFTISRENAKNTVYLQMNSLKPEDTAVYYCAAGKHVTFSYEYRMDYWGVGTQVTVSS	low polyreactivity
QVQLVESGGGLVQAGGSLRLSCAASGYTFGTYTMGWYRMARWKERELVAGIDSGGTTNYADSVKGRFTISRDNATNTVYLQMHSLKPEHTAVYYSTAYHLLIVDYYLGLYYYRGNYYWGQGTQVTVSS	low polyreactivity
QVQLVESGGGLVQAGGSLRLSCAASGRIFWYYAMGWYRQAPGKERELVAAITRSGASTYYADSVKGRFTISRDNAKNTVYLQMNSLKREDTAVYYCAADTGRYRYVYEYYYWGLGTQVTVSS	high polyreactivity
QVQLVESGGGLVQAGGSLRLSCAASGSTFYLYAKGWYRQAPGKEREMVAAITGSGSRTYYADSVKGRFTISRDNAKNTVYLQMHSLNPEDTAVYYCAAKYGWQGGRGRDYWGQGTQVTVSS	high polyreactivity
QVQLVESGGGLVQPGGSLRLSCAASGSIYTNAMGWYRQAPGKERELVAAISWSGGRTYYADSVKGRFTISRDNAKNTVYFQLNSLKPEDTAVYYCNTRGTRIASGHYYWGQGTQVTVSS	high polyreactivity
QVQLVESGPGLVQAGVSLRLSCAASGSIFAYYAMGWYRQAPGKERELVAAISSRGGNTYYADSVKGRFTISRHYAKNSVYLQMNSLKPEDTAVYYCAADYQYSYGEYDYWGQGTQVTVSS	high polyreactivity
QVQLVESGGGLVQAGGSLRLSCAASGSIVVVYDKGWYRQAPGKERELVAAISRRGGNTYYADSVKGRFTISRDNAKNTVYLQMNSLKPEDTAVYYCNAVRTRKAFDYWGQGTQVTVSS	low polyreactivity
QVQLVESGGGLVQAGGSLRLSCAASGITFPQYAMGWYRQAPGKERELVAAITSGGSTNYADSVKGRFTISRDNGKNTVYLQMNSLKPEDTGVYYCNTAGYYWLHYTMDYWGQGTQVTVSS	high polyreactivity
QVQLVESGGGLVQAGGSLRLSCAASGRTFIYYAMGWYRQAPGKERELVAGISRNGGRTYYADSVKGRFTISRDNAKNTVYLQMNSLKPEDTAVYYCNAYPPSRHDYWGQGTQVTVSS	high polyreactivity
QVQLVESGGGLVQAGGSLRLSCAASGRIFLKYAMGWYRQAPGKERELVAAISSSGGSTYYADSVKGRFTISRDNAMNTVYLQMNSLKPEDTAVYYCNALYKRGSSYFIGDGYWGQGTQVTVSS	high polyreactivity
QVQLVESGGGLVQAGGSLRLSCAASGSIFTYYVMGWYRQAPGKERELVAVISRRGGRTYYADSVKGRFTISRDNAKNTVYLQMNSLKPEDTAVYYCATTYKTRYGGRYRYYYWGQGTQVTVSS	high polyreactivity
QFQLVESGGGLVQAGGSLRLSCAASGITFVDNAMGWYRQAPGKERELVAAITNSGSTYADSVKGRFTISRDNAKNTVYVQMNSLKPEDTAVYYCAADYYILLTKSDRLFGSWGQGTQVTVSS	low polyreactivity
QVQLVESGGGLVHAGGSLRLSCAASGRIFQHYAMGWYRKAPGKERELVAAISWRGGSTYYADSVKGRFTISRDNAKNTVYLQMNSLIPEDTAVYYCAAGYPGRNPGFDYWGQGNQVTVSS	high polyreactivity
QVQLVESGGGLVQAGGSLRLSCAASGITISYYAMGWYRQAPGKERELVAAISFSGARTYYADSVKGRFTISRDNAKNTVYLQMNSLKPEDTAVYYCNAVSGIVQRYDYWGQGTQVTVSS	high polyreactivity
QVQLVESGGGLVQAGGSLRLSCAASGSIFRNYAMGWYRQAPGKERELVATISWNGGRTHYADSVKGRFTISRDNAKNTVYLQMNSLKPVDTAVYYCNKDAASFRHFYGYGYWGQGTQVTVSS	low polyreactivity
QVQLVESGGGLVQAGGSLRLSCAASGFTFVRNAMGWYRQAPGNERELVAALSTSAGSTYYADSVKGRFTISRDNAKNTVYLQMNSLKPEDTAVYYSAASASRYFVLAASGGIRYYYWGQGTQVTVSS	high polyreactivity
QDQIGESGGGLVQAGGSLSLSCAASGTTIVNNAMGRNRQARWKERELVAAITQRGGRSSYADSVNGRFTISRDNAKNTVYLQMNSLKPEDTAVYYCATVATCRHKGKYNYLGQGTQVTVSS	low polyreactivity
QVQLVESGGGLVQAGGSLRISCAASGFIFHVYAMGWYRQAPGKERELVAAISSGGSTYYADSVKGRFTISRDNAKNTVYLQMNSLKPEDTAVYYCNVARSRYRYRYDYWGQGTQVTVSS	high polyreactivity

Sequence	polyreactivity (PSR sort gate)
QVQLVESGGGLVHAGGSLRLSCAASGSTFGYYAMGWYRQAPGTERELVADINWNGGSTNYADSVKGRFTISRDTEKKTVYLQMNSLKPEDTAVYFCAKGLRPYRFYYWGQGTQVTVSS	high polyreactivity
QVQLVESGGGLVQAGGSLRLSCAASGLILSRNTMGWYRQAPGKERELVAAITRRGGSTYYADSVKGRFTISRDNAKNTVYLQMNSLKPEDTAVYYCRLKVGTTSRWSYDYWGQGTQVTVSS	high polyreactivity
QVLIEDSGGGLVQAGGSLRLSCAASGSIFYFYAMGWYRQAPGKERELVAAISYSVGSTYYADSVKGRFTISRVNAKNTVYLQMNSLKPEDTAVDYCAADYYYGAWDGYGDEKYYYWGQGTQVTVSS	low polyreactivity
QVQLVESGGGLVQAGVSLRLSCAASGFIYDHNAMGWYRQAPGKERELVAAITRSGGSTYYAYSVKGRFTISRDNAKNTVYLQMNSLKQEDTAVYYCNADAYGTPEFTSYAVRYDYWGQGTQVTVSS	low polyreactivity
QVQLVESGGGLVQAGGSLRLSCAASGRIFRSNAMGWYRQAPGKERELVAAITWSGGSTYYADSVKGRFTISRDNAKNTVYLQMNSLKPEDTAVYYCAADGYTAYLPYYWFDYWGQGTQVTVSS	high polyreactivity
QVQRVESGGGLVQAGGSLRLSCAASGITFWPYAMGWYRQAPGKERELVAAIRASVGRTYYADSVKGRFTISRDNAKNTVYLQMNSLKPEDTAVYYCNAYGRYGKFRVEYDYWGQGTQVTVSS	low polyreactivity
QVQLVESGGGLVQAGGSLRLSCAASGFTFAYYAMGWYRQAPGKEREFVAAINKGGGSTNYADSVKGRFTISRDNAKNTVYLQMNSLKPEDTAVYYCNADYFVWYIGRVFSRYGYWGQGTQVTVSS	low polyreactivity
QVQLVESGGGLVLAGGRLRLSCADYRSIFAGYAMGWYRQAPGKERELVAAISSSGGRTYYADSVKGRFTISRDNAKNTVYLQMNSLKPEDTAVYYCAVSTYEEEYWGQGTQVTVSS	high polyreactivity
QVQLEESGGGLVQAGGSLRFSFAASGSIFRYYAMGWYRQAPGKERELVANISRGCSTYYADSVKGRFTISRDNAKKTVYLQMNSLKPDDTAVYYCAADISERYDYWGQGTQVTVSS	high polyreactivity
QVQLVESGGGIVQAGGSLRLSCAASGSSFWRNTMGWYRQAPGKERELVAGISSTGTSTYYADSVKGRFTISRDNAKNTVYLQMNSLKPEDTAVYYCAAAYRNRKYDYWGQGTQVTVSS	high polyreactivity
QVQLQESGGGLVQAGGCLSCTASGTIFGQGDMGWYRQAPGKERELVATINDGASTYYADSVKGRFTISRDKAKNTVYLQKNSLKPDDTAGYYCAVFTDITTYFGYWGQGTQLTVSS	low polyreactivity
QVQLVESGGGLVQAGGSLRLSSAASGFIFQSYAMGWYRQAPGKERELVAAISASGGRTYYADSVKGRFTISRDNAKNTVYLQMNSLKPEDTAVYYCAAYRSYWAVYPRMYYWGQGTQVTVSS	high polyreactivity
QVQLVESGGGLVQAGGSLRLSCAASGFTFDGYAMGSYRQAPGKERELVAAISDSGDSTYYADSVKGRFTISRDNAKNTVYLQMNSLKPEDTAVYYCAAPSVGYYDPTDFDYWGQGTQVTVSS	low polyreactivity
QVQIVESGGFLVQAGGSLRLSCDASGRNIPGYGMGWSRHAPGKERELVAVITSNGGITYYADSVKGRFTISRDYAKNTVYLQMNSLKPEDTAVYYCDAYVIYYEFDSWGQGTQVTVSS	low polyreactivity
QVQLVESGGGLVQAGGSLRLSCAASGIIFRVYAMGWYRQAPGKERELVATITWSGGSTFYADSVKGRFTISRDNAKNTVYLQMNSLKPEDTAVYYCAKRGYVRSGLGRPYADDYWGQGTQVTVSS	low polyreactivity
QVQLVESGGGLVQAGGSLRLSCAASGRIFENNAMGWYRPAPGKERELVAAITSGGSTYYADSVKGRFTISRDNAKNTVYLQMNSLKPEDTAVYYCNVTFRVDPWTRTGYDYWGQGTQVTVSS	high polyreactivity
QVQLVESGGGLVQAGGSLRLSCAASGFTFYRYTMGWYIQAPGKERELVAAISARGVSTYYADSVKGRFTISRDIAKNTVYLQMNSLKPEDTAVYYCYVSRYDSWGQGTQVTVSS	high polyreactivity
QVQLLESGGGLVQAGGSLRLSCAASGRTFEKNAMGWYRQAPGNERELVASITSVGSTDYADSVKGSFTISRDNAKNTVYLQMNSLKPEDNAVYYCAKTLGSQNYDFDYWGQGTQVNVSS	low polyreactivity
QAQLVESGGGLVQAGGSLRLSSAASGFIFWGNAMGWYRQAPGKERELVAGIRSLGGTTSYADSVKGRFTISRDNAKNTVYLQMNSLKPEDTAVYYCAAGYGAEFDYWGQGTQVTVSS	low polyreactivity
QVQLVESGGGLVQAGGSLRLSCAASVRIFPTNAMGWYRQAPGKEREFVAAITWLGGSTYYADSVKGRFTISRDNAKNTVYLQMNRLKPEDTAVYYCAATGHIVFFRAYDYGYWGQGTQVTVSS	low polyreactivity
QVQLVESGGGLVQAGGSLRLSCAATGSIFYQNAMGWYRQAPGKDRELVAAISSRGGRTYYADSVKGRFTISRDNAKNTVYLQMNSLKTEDTAVYYFNAARFPYSKDYDYWGQGNQVTVSS	high polyreactivity
